Results as given in PMC3535375.

Assays:
[1] = target: recombinant soluble murine proADAM10 (truncated, lacking the signal peptide and the regions C-terminal of the protease domain) (murine); assay: SDS-PAGE with western blot + MALDI-TOF; purified recombinant proADAM10; anti-His-tag western blot and MALDI-TOF; a 100-kDa species called the proADAM10 dimer
kallikrein 2 (KLK2) = kallikrein 2 (KLK2) (UniProt P20151)
Sequence of UniProt P20151 (P20151 19-261): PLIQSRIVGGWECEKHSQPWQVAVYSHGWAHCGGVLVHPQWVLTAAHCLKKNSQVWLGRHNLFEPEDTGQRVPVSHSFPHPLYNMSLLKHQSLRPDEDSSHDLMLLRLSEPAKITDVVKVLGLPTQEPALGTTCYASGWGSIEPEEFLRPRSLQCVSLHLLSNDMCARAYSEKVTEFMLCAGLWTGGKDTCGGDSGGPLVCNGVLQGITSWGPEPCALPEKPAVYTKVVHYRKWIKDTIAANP

stoichiometry N [1]	KLK2 proteolytic activity (Z-Pyr-G-R-AMC) after incubation with meprin β-cleaved LEKTI 9–15, relative to uncleaved LEKTI 9–15 (kallikrein 2 (KLK2)) [%]	Substance
2		recombinant soluble murine proADAM10 (truncated, lacking the signal peptide and the regions C-terminal of the protease domain) (domain or fragment)
	20	meprin β-cleaved LEKTI 9–14 (domain or fragment)
